Legend:
[1] = target: T1, Human LILRA3 ECD recombinant protein with 6×His-tag (human, UniProt Q8N6C8 24-439); experiment: ELISA: plate coated with LILRA3 ECD recombinant protein, antibody at 0.5 ug/mL (method of example 3.2.1); mean OD450 printed over the bar [continued) C]
T1 construct: range 1-439; Bought protein; not shown: 6×His-tag

[2] = target: T2, Human LILRB2 stably expressed on EL4 cells (EL4/LILRB2) (human, UniProt Q8N423 22-597); experiment: Competitive FACS: EL4/LILRB2 cells preincubated with 10 ug/mL antibody, then ANGPTL4 added; inhibition of the ligand's binding to the cells [panel ANGPTL4]
T2 construct: also called EL4-LILRB2 cells; cell membrane human LILRB2
Experimental: (§1) The blocking activities were determined by quantitating the blockade of the ligands binding to EL4/LILRB2 cells.

[3] = target: T2, Human LILRB2 stably expressed on EL4 …; experiment: Competitive FACS: EL4/LILRB2 cells preincubated with 10 ug/mL antibody, then ANGPTL2 added; inhibition of the ligand's binding to the cells [panel ANGPTL2]
Experimental: as §1

[4] = target: T3, Human LILRB1 ECD recombinant protein with 6×His-tag (human, UniProt Q8NHL6 24-458, limits assumed); experiment: ELISA: plate coated with LILRB1 ECD recombinant protein [continued) F]
T3 construct: Bought protein; not shown: 6×His-tag

[5] = target: T2, Human LILRB2 stably expressed on EL4 …; experiment: competitive FACS on EL4/LILRB2 cells, blockade of HLA-G binding
Experimental: as §1

[6] = target: T2, Human LILRB2 stably expressed on EL4 …; experiment: Competitive FACS: EL4/LILRB2 cells preincubated with 10 ug/mL antibody, then MAG ECD added; inhibition of the ligand's binding to the cells [panel MAG]
Experimental: as §1

[7] = target: Human LILRB4 ECD recombinant protein with 6×His-tag (human) (UniProt Q8NHJ6); experiment: ELISA: plate coated with LILRB4 ECD recombinant protein, antibody at 0.5 ug/mL (method of example 3.2.1); mean OD450 printed over the bar [continued) H]
[8] = target: T4, 6×His-tagged human LILRB2 ECD recombinant protein (human, UniProt Q8N423 22-458, limits assumed); experiment: ELISA: plate coated with 6xHis-tagged human LILRB2 ECD, antibody at 0.5 ug/mL, HRP detection antibody; mean OD450 printed over the bar
T4 construct: Bought protein; not shown: 6×His-tag

[9] = target: T5, Human LILRA4 ECD recombinant protein with 6×His-tag (human, UniProt P59901 24-446); experiment: ELISA: plate coated with LILRA4 ECD recombinant protein [continued) D]
T5 construct: range 1-446; Bought protein; not shown: 6×His-tag

[10] = target: T4, 6×His-tagged human LILRB2 ECD …; experiment: Octet tandem binning on captured 6×His LILRB2 ECD; competitor (Ab1) J-19
Experimental: (§2) Briefly, the HIS1K sensors were hydrolyzed for 10 minutes followed by capture of 6×His-tagged human LILRB2 ECD recombinant protein to 0.3 nm. The LILRB2 captured sensors were then exposed to Ab1 and Ab2 in tandem or Ab2 directly. The binding signals of Ab2 to LILRB2 under different conditions were detected respectively. Finally, the relative binding signals of Ab2 in tandem were calculated by normalization. High relative binding signals represent low competition between Ab2 and Ab1 for binding antigen. Likewise, low relative association signals represent high competition between Ab2 and Ab1.

[11] = target: T6, Human LILRA2 ECD recombinant protein with His-tag (human, UniProt Q8N149 24-449); experiment: ELISA: plate coated with LILRA2 ECD recombinant protein, antibody at 0.5 ug/mL (method of example 3.2.1); mean OD450 printed over the bar [continued) B]
T6 construct: range 24-449; Bought protein; not shown: His-tag

[12] = target: T7, Human LILRA1 ECD recombinant protein with 6×His-tag (human, UniProt O75019 17-461); experiment: ELISA: plate coated with LILRA1 ECD recombinant protein
T7 construct: range 1-461; Bought protein; not shown: 6×His-tag

[13] = target: T8, Human LILRB3 ECD recombinant protein with 6×His-tag (human, UniProt O75022 24-443); experiment: ELISA: plate coated with LILRB3 ECD recombinant protein, antibody at 0.5 ug/mL (method of example 3.2.1); mean OD450 printed over the bar [continued) G]
T8 construct: range 1-443; Bought protein; not shown: 6×His-tag

[14] = target: T8, Human LILRB3 ECD recombinant protein …; experiment: ELISA: plate coated with LILRB3 ECD recombinant protein [continued) G]
[15] = target: T7, Human LILRA1 ECD recombinant protein …; experiment: ELISA: plate coated with LILRA1 ECD recombinant protein, antibody at 0.5 ug/mL (method of example 3.2.1); mean OD450 printed over the bar
Experimental: (§3) Briefly, 0.5 μg/mL anti-LILRB2 antibodies were incubated in human LILRB2 ECD recombinant protein-coated ELISA plate at 37° C. for 1 hour. After washing, horseradish peroxidase (HRP) labeled detection antibody was added and incubated at 37° C. for 1 hour. Color development was conducted by the addition of 100 μl/well of TMB (3,3′,5,5′-Tetramethylbenzidine) solution. After incubation at room temperature (RT) for 10-15 minutes, the reaction was stopped by adding 100 μl 1N HCl. Then the plates were read immediately using plate reader for optical density at 450 nm.

[16] = target: T6, Human LILRA2 ECD recombinant protein …; experiment: ELISA: plate coated with LILRA2 ECD recombinant protein [continued) B]
Experimental: as §3

[17] = target: T9, Human LILRB5 ECD recombinant protein with 6×His-tag (human, UniProt O75023 24-458, limits assumed); experiment: ELISA: plate coated with LILRB5 ECD recombinant protein, antibody at 0.5 ug/mL (method of example 3.2.1); mean OD450 printed over the bar [continued) I]
T9 construct: Bought protein; not shown: 6×His-tag

[18] = target: T9, Human LILRB5 ECD recombinant protein …; experiment: ELISA: plate coated with LILRB5 ECD recombinant protein [continued) I]
[19] = target: T4, 6×His-tagged human LILRB2 ECD …; experiment: Octet tandem binning on captured 6×His LILRB2 ECD; competitor (Ab1) 043c
Experimental: as §2

[20] = target: T3, Human LILRB1 ECD recombinant protein …; experiment: ELISA: plate coated with LILRB1 ECD recombinant protein, antibody at 0.5 ug/mL (method of example 3.2.1); mean OD450 printed over the bar [continued) F]
Experimental: as §3

T3 sequence (Q8NHL6 24-458 limits assumed): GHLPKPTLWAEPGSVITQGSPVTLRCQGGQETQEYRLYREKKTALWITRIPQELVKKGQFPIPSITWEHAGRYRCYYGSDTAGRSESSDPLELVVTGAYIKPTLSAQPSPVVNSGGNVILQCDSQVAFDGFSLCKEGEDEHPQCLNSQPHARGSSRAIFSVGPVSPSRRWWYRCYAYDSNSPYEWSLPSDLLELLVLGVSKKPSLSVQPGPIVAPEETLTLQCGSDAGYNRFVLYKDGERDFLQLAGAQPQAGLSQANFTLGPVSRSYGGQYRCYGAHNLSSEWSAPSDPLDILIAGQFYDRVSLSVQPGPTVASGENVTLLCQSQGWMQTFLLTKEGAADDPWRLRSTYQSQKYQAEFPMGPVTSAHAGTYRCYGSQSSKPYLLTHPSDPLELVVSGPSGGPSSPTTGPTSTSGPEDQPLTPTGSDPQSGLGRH
T7 sequence (O75019 17-461 limits assumed): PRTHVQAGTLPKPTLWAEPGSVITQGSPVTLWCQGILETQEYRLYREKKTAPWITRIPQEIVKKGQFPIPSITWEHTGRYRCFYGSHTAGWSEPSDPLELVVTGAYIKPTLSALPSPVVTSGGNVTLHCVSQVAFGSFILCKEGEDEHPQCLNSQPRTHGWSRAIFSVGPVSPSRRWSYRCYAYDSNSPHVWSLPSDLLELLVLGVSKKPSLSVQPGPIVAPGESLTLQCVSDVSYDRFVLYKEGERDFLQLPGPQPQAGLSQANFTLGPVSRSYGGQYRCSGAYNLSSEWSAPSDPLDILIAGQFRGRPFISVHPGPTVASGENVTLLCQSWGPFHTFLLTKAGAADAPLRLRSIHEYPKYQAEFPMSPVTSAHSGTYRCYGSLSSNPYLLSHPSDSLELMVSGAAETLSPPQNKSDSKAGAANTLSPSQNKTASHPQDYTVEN
T2 sequence (Q8N423 22-597 limits assumed): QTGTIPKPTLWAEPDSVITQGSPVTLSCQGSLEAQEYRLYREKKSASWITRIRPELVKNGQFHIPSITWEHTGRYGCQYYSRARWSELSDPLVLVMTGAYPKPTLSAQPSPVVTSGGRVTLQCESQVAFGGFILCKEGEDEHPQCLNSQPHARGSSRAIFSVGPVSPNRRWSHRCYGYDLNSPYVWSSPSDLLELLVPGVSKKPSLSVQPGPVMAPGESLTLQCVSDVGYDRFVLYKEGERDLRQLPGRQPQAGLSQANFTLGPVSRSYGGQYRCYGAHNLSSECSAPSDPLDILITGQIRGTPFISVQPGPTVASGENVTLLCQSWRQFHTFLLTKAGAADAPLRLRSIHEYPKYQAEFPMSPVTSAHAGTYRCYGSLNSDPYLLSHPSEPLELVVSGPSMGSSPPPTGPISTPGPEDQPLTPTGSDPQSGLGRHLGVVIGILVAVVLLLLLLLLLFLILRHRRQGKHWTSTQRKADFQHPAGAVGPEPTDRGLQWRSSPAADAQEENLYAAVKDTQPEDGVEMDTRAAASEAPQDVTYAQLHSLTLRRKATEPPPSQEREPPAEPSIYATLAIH
T9 sequence (O75023 24-458 limits assumed): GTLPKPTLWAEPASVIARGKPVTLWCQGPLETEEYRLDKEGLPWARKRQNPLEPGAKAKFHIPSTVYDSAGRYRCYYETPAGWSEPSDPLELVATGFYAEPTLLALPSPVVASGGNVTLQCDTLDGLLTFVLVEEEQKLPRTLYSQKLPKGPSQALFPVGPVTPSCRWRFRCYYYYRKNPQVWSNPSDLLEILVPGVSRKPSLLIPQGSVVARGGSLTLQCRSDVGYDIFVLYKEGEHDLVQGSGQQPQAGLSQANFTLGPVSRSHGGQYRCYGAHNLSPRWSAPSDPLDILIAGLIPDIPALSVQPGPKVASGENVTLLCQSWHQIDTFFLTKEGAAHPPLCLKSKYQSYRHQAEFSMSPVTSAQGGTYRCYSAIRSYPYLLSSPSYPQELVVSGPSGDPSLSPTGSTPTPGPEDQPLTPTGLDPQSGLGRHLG
T6 sequence (Q8N149 24-449 limits assumed): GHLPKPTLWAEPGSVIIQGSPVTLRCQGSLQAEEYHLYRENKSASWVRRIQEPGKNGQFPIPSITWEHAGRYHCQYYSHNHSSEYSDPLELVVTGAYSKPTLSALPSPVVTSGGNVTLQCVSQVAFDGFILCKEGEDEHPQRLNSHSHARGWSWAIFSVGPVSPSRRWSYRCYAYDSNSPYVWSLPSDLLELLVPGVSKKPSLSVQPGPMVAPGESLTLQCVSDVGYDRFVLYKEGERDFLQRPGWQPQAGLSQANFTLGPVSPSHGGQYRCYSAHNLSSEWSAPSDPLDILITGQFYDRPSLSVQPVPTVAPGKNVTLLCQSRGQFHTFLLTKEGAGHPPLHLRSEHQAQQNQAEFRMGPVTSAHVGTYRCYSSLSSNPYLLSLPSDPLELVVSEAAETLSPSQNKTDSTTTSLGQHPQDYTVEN
T1 sequence (Q8N6C8 24-439 limits assumed, form in doubt): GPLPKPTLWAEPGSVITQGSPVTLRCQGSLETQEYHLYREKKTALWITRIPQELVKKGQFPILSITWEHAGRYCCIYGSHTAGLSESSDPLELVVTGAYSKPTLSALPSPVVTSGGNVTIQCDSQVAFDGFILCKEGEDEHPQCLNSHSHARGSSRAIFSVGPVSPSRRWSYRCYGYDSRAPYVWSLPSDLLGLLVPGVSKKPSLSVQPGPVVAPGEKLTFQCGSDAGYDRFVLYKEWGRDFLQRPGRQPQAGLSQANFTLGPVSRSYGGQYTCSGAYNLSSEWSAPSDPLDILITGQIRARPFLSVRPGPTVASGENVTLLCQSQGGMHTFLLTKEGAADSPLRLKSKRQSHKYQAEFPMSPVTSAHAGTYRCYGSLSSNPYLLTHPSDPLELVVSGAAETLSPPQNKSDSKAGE
T5 sequence (P59901 24-446 limits assumed): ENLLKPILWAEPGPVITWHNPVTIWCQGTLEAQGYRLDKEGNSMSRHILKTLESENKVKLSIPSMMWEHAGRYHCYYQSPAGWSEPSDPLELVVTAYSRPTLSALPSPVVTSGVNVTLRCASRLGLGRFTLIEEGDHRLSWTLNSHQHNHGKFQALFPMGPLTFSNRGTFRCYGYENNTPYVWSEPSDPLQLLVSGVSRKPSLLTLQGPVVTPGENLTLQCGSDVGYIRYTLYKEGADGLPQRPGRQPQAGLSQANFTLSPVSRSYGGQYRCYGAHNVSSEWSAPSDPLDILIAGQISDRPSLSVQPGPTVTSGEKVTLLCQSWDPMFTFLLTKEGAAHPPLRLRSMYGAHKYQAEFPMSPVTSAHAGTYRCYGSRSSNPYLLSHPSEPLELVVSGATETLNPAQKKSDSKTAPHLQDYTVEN
T4 sequence (Q8N423 22-458 limits assumed): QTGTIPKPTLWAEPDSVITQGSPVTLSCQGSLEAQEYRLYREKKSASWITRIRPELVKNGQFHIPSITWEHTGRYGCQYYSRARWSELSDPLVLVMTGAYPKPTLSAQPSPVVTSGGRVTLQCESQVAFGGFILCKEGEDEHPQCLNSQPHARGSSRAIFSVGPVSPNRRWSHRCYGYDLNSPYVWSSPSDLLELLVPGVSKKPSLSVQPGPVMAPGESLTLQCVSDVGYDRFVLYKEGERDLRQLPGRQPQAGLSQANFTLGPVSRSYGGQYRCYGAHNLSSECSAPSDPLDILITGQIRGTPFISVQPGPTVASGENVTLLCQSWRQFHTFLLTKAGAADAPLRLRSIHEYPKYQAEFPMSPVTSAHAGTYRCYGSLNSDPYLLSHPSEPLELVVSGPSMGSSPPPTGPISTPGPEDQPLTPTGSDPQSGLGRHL

| OD450 [1] | Inhibition (%) [2] | Inhibition (%) [3] | binding result [4] | IC50 [5] | TOP Blocking (%) [5] | Inhibition (%) [6] | OD450 [7] | OD450 [8] | binding result [9] | relative binding signal of Ab2 in tandem [10] | OD450 [11] | binding result [12] | OD450 [13] | binding result [14] | OD450 [15] | binding result [16] | OD450 [17] | binding result [18] | relative binding signal of Ab2 in tandem [19] | Binder | further results |
| --- | --- | --- | --- | --- | --- | --- | --- | --- | --- | --- | --- | --- | --- | --- | --- | --- | --- | --- | --- | --- | --- |
| 0.08 | 59% | 97% | no binding (tested: 0.5 ug/mL) | 0.04 nM | 100% | 13% | 0.14 | 3.27 | no binding (tested: 0.5 ug/mL) | -3% | 0.08 | no binding (tested: 0.5 ug/mL) | 0.09 | no binding (tested: 0.5 ug/mL) | 0.16 | no binding (tested: 0.5 ug/mL) | 0.09 | no binding (tested: 0.5 ug/mL) | 96% | J-19 (antibody, V domains shown, Human IgG4 monoclonal antibody with S228P in the constant region, made according to WO 2019/126514 A2; also called benchmark antibody J-19) VH: QVTLKESGPGILQPSHTLSLTCSFSGFSLNTYAMGVSWIRQPSGKGLEWLASIWWNGNKYNNPSLKSRLTVSKDTSNNQAFLKVTSVDTADTATYYCAHSRIIRFTDYVMDAWGQGASVTVSS VL: DIQMTQSPASLSTFLGEPVTIECRASEDIYNDLAWYQQKPGKSPQLLIYNANSLHTGVPSRFSGSGSGTQYSLKINSLQSEDVASYFCQQYYDYPLTFGSGTKLEIK | OD450 [20]: 0.1 |
| 0.09 | 63% | 93% | no binding (tested: 0.5 ug/mL) | 0.1 nM | 100% | 90% | 0.11 | 2.72 | no binding (tested: 0.5 ug/mL) | 100% | 0.08 | no binding (tested: 0.5 ug/mL) | 0.08 | no binding (tested: 0.5 ug/mL) | 0.15 | no binding (tested: 0.5 ug/mL) | 0.08 | no binding (tested: 0.5 ug/mL) | 3% | 043c (antibody, V domains shown, Human IgG4 chimeric antibody with S228P mutation at the Fc region; also called chimeric antibody 043c; parental antibody 043c) VH: QVQLQQSGAELAKPGASVKLSCKASGYTFTSYWMYWVKQRPGQGLEWIGHINPSSGYTKYNQKFKDKATLTADKSSSTAYMQLSSLTYEDSAVYYCARDPNWDNYWGQGTTLTVSS VL: DIVMTQSHKFMSTSVGDRVSITCKASQDVSIAVAWYQQKPGQSPKLLIYSASYRYTGVPDRFTGSGSGTDFTFTISSVQAEDLAVYYCQQHYSTPYTFGGGTKLEIK | OD450 [20]: 0.08 |
| 0.07 | 54% | 94% | no binding (tested: 0.5 ug/mL) | 0.32 nM | 100% | 93% | 0.1 | 1.42 | no binding (tested: 0.5 ug/mL) | 17% | 0.07 | no binding (tested: 0.5 ug/mL) | 0.07 | no binding (tested: 0.5 ug/mL) | 0.15 | no binding (tested: 0.5 ug/mL) | 0.07 | no binding (tested: 0.5 ug/mL) | 100% | 1E1 (antibody, V domains shown, Human IgG4 monoclonal antibody with S228P in the constant region, made according to US 2018/0298096 A1; also called benchmark antibody 1E1) VH: QVQLQQWGAGLLKPSETLSLTCAVYGGSFSGYYWSWIRQPPGKGLEWIGEINHSGSTNYNPSLKSRVTISVDTSKNQFSLKLSSVTAADTAVYYCARLPTRWVTTRYFDLWGRGTLVTVSS VL: QSVLTQPPSVSGAPGQRVTISCTGSSSNIGAGYDVHWYQQLPGTAPKLLIYGNSNRPSGVPDRFSVSKSGASASLAITGLQAEDEADYYCQSFDNSLSAYVFGGGTQLTVL | OD450 [20]: 0.08 |
